Experimental data taken from the Human Domainome abundance scans (Beltran et al. 2025).
± gives the uncertainty stated by the source.

B1: Triacylglycerol hydrolase DDHD2, residues 389 to 447; numbered along this chain, O94830 (parent)
chain: TLEEDLKKLQLSEFFDIFEKEKVDKEALALCTDRDLQEIGIPLGPRKKILNYFSTRKNS

Variants of: B1
Assay: abundance fitness (aPCA) (normalised: wild type 0, dead -1); higher = more abundant; growth selection in yeast, the domain comes from the species named
Details: Homo sapiens

Row | Variant | abundance fitness
1 | TLEEDLKKLQLSEFFDIFEKEKVDKAALALCTDRDLQEIGIPLGPRKKILNYFSTRKNS [E26A] | -0.052 ± 0.086
2 | TGEEDLKKLQLSEFFDIFEKEKVDKEALALCTDRDLQEIGIPLGPRKKILNYFSTRKNS [L2G] | -0.607 ± 0.071
3 | TQEEDLKKLQLSEFFDIFEKEKVDKEALALCTDRDLQEIGIPLGPRKKILNYFSTRKNS [L2Q] | -0.65 ± 0.12
4 | TLEEDVKKLQLSEFFDIFEKEKVDKEALALCTDRDLQEIGIPLGPRKKILNYFSTRKNS [L6V] | -1.12 ± 0.11
5 | TLEEDYKKLQLSEFFDIFEKEKVDKEALALCTDRDLQEIGIPLGPRKKILNYFSTRKNS [L6Y] | -0.675 ± 0.43
6 | TLEEDNKKLQLSEFFDIFEKEKVDKEALALCTDRDLQEIGIPLGPRKKILNYFSTRKNS [L6N] | -0.32 ± 0.37
7 | TLEEDLKKLQLSEFFDIFEKEKVDKEALALCTDRDLQEIGIPLGPRKKILNYMSTRKNS [F53M] | 0.023 ± 0.091
8 | TLEEDLKKLQLSEFFDIFEKEKVCKEALALCTDRDLQEIGIPLGPRKKILNYFSTRKNS [D24C] | -0.087 ± 0.16
9 | TLEEDLKKLQLSEFFDIFEKEKVPKEALALCTDRDLQEIGIPLGPRKKILNYFSTRKNS [D24P] | -0.561 ± 0.18
10 | TLEEDLKKLQLSEFFDIFEKEKVVKEALALCTDRDLQEIGIPLGPRKKILNYFSTRKNS [D24V] | -0.707 ± 0.12
11 | TLEEDLKKLQLSEFFDIFEYEKVDKEALALCTDRDLQEIGIPLGPRKKILNYFSTRKNS [K20Y] | -0.324 ± 0.14
12 | TLEEDLKKLQLSEFFDIFEPEKVDKEALALCTDRDLQEIGIPLGPRKKILNYFSTRKNS [K20P] | -0.591 ± 0.095
13 | TLEEDLKKLQLSEFFDIFEKEKVDKEALALCTDRDLQEIGIPLGPRYKILNYFSTRKNS [K47Y] | -0.524 ± 0.18
14 | TLEEDLKKLQLSEFFDIFEKEKVDKEALALCTQRDLQEIGIPLGPRKKILNYFSTRKNS [D33Q] | -0.446 ± 0.11
15 | TLEEDLKKLQLSEFFDIFGKEKVDKEALALCTDRDLQEIGIPLGPRKKILNYFSTRKNS [E19G] | -0.359 ± 0.072
16 | TLEEDLKKLQLSEFFDIFRKEKVDKEALALCTDRDLQEIGIPLGPRKKILNYFSTRKNS [E19R] | -0.007 ± 0.062
17 | TLEEDLKKLQLSEFFDIFEKEKVDKEFLALCTDRDLQEIGIPLGPRKKILNYFSTRKNS [A27F] | 0.708 ± 0.11
18 | TLEEDLKKLQLSEFFDIFEKEKVDKENLALCTDRDLQEIGIPLGPRKKILNYFSTRKNS [A27N] | 0.263 ± 0.15
19 | TLEEDLRKLQLSEFFDIFEKEKVDKEALALCTDRDLQEIGIPLGPRKKILNYFSTRKNS [K7R] | 0.108 ± 0.074
20 | TLEEDLYKLQLSEFFDIFEKEKVDKEALALCTDRDLQEIGIPLGPRKKILNYFSTRKNS [K7Y] | -0.006 ± 0.14
21 | TLEEDLHKLQLSEFFDIFEKEKVDKEALALCTDRDLQEIGIPLGPRKKILNYFSTRKNS [K7H] | -0.07 ± 0.16
22 | TLEEDLKKLQLSEFFDIFEKEKHDKEALALCTDRDLQEIGIPLGPRKKILNYFSTRKNS [V23H] | -0.376 ± 0.15
23 | TLEEDLKKLQLSEFFDIFEKEKPDKEALALCTDRDLQEIGIPLGPRKKILNYFSTRKNS [V23P] | -0.374 ± 0.11

Row | Variant | abundance fitness
24 | TLEEDLKKLQLSEFFDIFEKEKVDKEALALCTDRDLQEIGIPLGPRKKILNYFSTRKNY [S59Y] | -0.109 ± 0.18
25 | TLEEDLKKLQLSEFFDIFEKEKVDKEALALCTDRDLQEIGIPLGPRKKILNYFSTRKNR [S59R] | -0.352 ± 0.11
26 | TLEEDLKKLQLSEFFDIFEKEKVDKEALALCTDRDLQEIGIPLGPRKKILNYFSTRKNC [S59C] | -0.058 ± 0.13
27 | TLEEDLKKLQLSEFFDIFEKEKVDKEALALCTDRDLTEIGIPLGPRKKILNYFSTRKNS [Q37T] | -0.129 ± 0.089
28 | TLEEDLKKLQLSEFFDIFEKEKVDKEALALCTDRDLQEIGIPLGPRKMILNYFSTRKNS [K48M] | 0.146 ± 0.11
29 | TLEEDLKKLQLSEFFDIFEKEKVDKEALALCTDRDNQEIGIPLGPRKKILNYFSTRKNS [L36N] | -0.267 ± 0.098
30 | TLEEDLKKLQLSEFFDIFEKEKVDKEALALCCDRDLQEIGIPLGPRKKILNYFSTRKNS [T32C] | -0.494 ± 0.1
31 | TLEEDLKKLQLSEFFDIFEKEKVDKEALASCTDRDLQEIGIPLGPRKKILNYFSTRKNS [L30S] | 0.489 ± 0.058
32 | TLEEDLKKLQLSEFFDIFEKEKVDKEALAKCTDRDLQEIGIPLGPRKKILNYFSTRKNS [L30K] | 0.642 ± 0.083
33 | TLEEDLKKLQLSEFFDIFEKEKVDKEALAFCTDRDLQEIGIPLGPRKKILNYFSTRKNS [L30F] | -0.031 ± 0.096
34 | TLEEDLKKLQLSEFFDIFEKEKVDKEALAYCTDRDLQEIGIPLGPRKKILNYFSTRKNS [L30Y] | 0.164 ± 0.1
35 | TLEEDLKKLQLSEFFDIFEKEKVDKEALALCTDRDLQEIGIPLGPRKKILNYFSTYKNS [R56Y] | 0.019 ± 0.11
36 | ILEEDLKKLQLSEFFDIFEKEKVDKEALALCTDRDLQEIGIPLGPRKKILNYFSTRKNS [T1I] | -0.572 ± 0.21
37 | NLEEDLKKLQLSEFFDIFEKEKVDKEALALCTDRDLQEIGIPLGPRKKILNYFSTRKNS [T1N] | 0.235 ± 0.29
38 | YLEEDLKKLQLSEFFDIFEKEKVDKEALALCTDRDLQEIGIPLGPRKKILNYFSTRKNS [T1Y] | 0.138 ± 0.38
39 | TLEEDLKKLQLSEFFDIFEKEKVDKEALALCTDRDLQEIGIPLGPRKKYLNYFSTRKNS [I49Y] | -0.946 ± 0.19
40 | TLEEDLKKLQLSEFFDIFEKEKVDKEALALCTDRSLQEIGIPLGPRKKILNYFSTRKNS [D35S] | -0.051 ± 0.07
41 | TLEEDLKKLQLSEFFDIFEKEKVDKEALALCTDRLLQEIGIPLGPRKKILNYFSTRKNS [D35L] | -0.762 ± 0.08
42 | TLEEDLKKLQLSEFFDIFEKEKVDKEALALCTDRALQEIGIPLGPRKKILNYFSTRKNS [D35A] | -0.309 ± 0.084
43 | TLEEDLKKLQLSEFFDIFEKEKVDTEALALCTDRDLQEIGIPLGPRKKILNYFSTRKNS [K25T] | -0.302 ± 0.1
44 | TLEEDLKKLQLSEFFDIFEKEKVDKEALALCTDRDLQQIGIPLGPRKKILNYFSTRKNS [E38Q] | -0.161 ± 0.13
45 | TLEEDLKKLQLSEFFDIFEKEKVDKEALALCTDRDLQYIGIPLGPRKKILNYFSTRKNS [E38Y] | -0.55 ± 0.11
